Measurements as given in patent publication US20100062462.
Changes are numbered by the printed parent chain.

Legend:
[1] = system: T1, Flag-procaspase-8-Myc fusion polypeptide
T1 sequence: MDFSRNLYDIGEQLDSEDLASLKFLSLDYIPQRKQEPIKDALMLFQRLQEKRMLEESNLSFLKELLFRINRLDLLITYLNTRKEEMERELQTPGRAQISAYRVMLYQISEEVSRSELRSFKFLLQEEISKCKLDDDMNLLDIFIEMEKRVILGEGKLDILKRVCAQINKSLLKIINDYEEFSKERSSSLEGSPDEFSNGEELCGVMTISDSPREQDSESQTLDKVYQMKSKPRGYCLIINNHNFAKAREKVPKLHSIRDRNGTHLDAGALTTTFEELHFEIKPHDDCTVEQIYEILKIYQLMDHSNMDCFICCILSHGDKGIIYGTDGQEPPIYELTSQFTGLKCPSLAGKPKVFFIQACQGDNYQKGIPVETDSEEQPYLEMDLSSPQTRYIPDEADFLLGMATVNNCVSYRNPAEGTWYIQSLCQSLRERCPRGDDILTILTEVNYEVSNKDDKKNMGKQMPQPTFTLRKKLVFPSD

[2] = system: T2, procaspase-8 F355R, F356N
T2 sequence: T1 sequence with F355R, F356N

[3] = system: T3, procaspase-8 p18 subunit
T3 sequence: T1 sequence

Substance | cleavage (autoradiography) [1] | cleavage (autoradiography) [2] | cleavage (LC-MS of the cleaved p18 fragment) [3]
HIV-1 protease | Incubation of wild-type procaspase-8 with HIV protease resulted in a p41 procaspase-8 fragment | an almost negligible amount of cleavage was observed when procaspase-8 F355R, F356N was incubated with HIV protease | This fragment had a weight of 16158 mass units (cleaved form)
renin | another aspartyl protease, renin, did not cause procaspase 8 cleavage | – | –
